Patent publication US20080292615

Legend:
Desmocollin 1, Q08554 = biological target: T1, Desmocollin 1, Q08554
T1 chain: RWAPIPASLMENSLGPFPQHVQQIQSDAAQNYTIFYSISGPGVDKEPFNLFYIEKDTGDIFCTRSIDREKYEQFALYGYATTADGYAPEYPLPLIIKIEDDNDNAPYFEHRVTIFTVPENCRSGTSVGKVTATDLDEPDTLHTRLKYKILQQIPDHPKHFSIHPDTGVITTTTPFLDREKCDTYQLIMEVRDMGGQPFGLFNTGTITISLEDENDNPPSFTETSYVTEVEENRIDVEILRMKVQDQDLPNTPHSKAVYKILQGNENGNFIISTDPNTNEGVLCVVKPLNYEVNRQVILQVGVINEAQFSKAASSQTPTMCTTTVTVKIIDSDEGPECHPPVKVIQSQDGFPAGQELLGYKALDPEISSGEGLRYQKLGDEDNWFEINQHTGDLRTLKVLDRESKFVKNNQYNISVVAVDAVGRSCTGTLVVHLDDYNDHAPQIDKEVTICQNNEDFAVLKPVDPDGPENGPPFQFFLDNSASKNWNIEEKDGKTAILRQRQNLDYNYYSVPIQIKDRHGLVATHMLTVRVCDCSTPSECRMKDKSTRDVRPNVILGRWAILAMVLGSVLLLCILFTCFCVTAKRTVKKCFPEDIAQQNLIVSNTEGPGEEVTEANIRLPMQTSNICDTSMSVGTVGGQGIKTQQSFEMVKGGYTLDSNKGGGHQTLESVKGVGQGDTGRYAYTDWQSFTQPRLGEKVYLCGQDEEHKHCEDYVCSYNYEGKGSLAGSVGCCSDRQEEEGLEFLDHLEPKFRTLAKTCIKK

Plakoglobin, P14923 = biological target: T2, Plakoglobin, P14923
T2 chain: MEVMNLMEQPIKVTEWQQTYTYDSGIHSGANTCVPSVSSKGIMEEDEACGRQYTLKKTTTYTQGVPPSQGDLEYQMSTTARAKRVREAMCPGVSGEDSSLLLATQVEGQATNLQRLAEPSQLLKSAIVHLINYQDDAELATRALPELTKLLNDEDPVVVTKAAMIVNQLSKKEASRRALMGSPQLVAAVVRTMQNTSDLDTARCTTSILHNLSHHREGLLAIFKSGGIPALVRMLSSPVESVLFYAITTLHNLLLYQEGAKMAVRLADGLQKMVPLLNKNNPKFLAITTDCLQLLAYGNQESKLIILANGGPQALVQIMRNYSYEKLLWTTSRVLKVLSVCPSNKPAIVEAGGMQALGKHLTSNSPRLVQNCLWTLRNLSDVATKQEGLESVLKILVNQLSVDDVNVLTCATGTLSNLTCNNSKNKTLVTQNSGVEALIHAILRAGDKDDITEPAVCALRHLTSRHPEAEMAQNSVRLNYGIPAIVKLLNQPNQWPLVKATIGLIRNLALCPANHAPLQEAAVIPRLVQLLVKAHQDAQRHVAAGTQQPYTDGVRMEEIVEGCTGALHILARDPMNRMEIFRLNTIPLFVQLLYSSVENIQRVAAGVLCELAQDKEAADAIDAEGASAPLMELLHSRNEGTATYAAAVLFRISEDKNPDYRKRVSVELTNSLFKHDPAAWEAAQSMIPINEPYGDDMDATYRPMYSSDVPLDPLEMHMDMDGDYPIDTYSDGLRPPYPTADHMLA

Corneodesmosin, Q15517 = biological target: T3, Corneodesmosin, Q15517
T3 chain: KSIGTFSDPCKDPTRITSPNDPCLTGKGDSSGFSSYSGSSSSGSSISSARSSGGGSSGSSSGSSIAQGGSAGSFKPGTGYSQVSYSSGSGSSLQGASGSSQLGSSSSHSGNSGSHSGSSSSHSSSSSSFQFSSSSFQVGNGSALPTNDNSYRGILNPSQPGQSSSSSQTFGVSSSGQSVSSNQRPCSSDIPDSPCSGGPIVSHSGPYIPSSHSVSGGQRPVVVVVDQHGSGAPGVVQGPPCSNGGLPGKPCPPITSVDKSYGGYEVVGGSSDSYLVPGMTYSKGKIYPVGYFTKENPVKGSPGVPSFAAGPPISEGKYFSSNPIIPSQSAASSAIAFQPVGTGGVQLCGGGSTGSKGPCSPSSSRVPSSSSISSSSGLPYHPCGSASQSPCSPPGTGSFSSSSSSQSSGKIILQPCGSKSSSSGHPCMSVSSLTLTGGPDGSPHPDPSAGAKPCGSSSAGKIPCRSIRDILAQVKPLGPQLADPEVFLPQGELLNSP

Desmoglein, Q02413 = biological target: T4, Desmoglein, Q02413
T4 chain: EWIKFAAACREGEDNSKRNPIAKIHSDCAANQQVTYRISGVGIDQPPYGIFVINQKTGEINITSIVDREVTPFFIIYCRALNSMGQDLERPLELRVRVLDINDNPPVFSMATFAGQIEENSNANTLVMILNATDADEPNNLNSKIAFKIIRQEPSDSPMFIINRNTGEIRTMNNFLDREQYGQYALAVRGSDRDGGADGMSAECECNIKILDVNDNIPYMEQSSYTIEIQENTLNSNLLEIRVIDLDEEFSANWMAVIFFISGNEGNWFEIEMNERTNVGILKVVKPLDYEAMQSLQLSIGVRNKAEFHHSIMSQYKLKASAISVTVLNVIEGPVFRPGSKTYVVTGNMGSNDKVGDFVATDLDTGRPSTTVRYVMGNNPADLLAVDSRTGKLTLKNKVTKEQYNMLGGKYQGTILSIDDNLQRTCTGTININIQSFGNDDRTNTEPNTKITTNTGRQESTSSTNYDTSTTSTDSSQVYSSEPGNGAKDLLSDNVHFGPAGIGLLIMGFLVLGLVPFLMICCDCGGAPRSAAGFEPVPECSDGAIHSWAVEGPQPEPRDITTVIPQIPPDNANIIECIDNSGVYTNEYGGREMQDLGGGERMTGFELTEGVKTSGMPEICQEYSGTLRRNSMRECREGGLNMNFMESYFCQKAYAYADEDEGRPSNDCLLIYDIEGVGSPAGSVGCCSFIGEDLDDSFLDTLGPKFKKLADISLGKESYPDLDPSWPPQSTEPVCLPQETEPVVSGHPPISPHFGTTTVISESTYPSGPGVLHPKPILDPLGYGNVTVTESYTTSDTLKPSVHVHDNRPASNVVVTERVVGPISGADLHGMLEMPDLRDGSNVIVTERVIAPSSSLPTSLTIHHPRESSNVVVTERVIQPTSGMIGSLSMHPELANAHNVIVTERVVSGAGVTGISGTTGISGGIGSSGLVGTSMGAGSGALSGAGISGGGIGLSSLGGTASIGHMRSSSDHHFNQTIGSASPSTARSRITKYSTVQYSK

B1: recombinant Stratum Corneum Chymotryptic Enzyme (SCCE), active form obtained from recombinant ProSCCE with agarose-bound trypsin (protein)
chain: EEAQGDKIIDGAPCARGSHPWQVALLSGNQLHCGGVLVNERWVLTAAHCKMNEYTVHLGSDTLGDRRAQRIKASKSFRHPGYSTQTHVNDLMLVKLNSQARLSSMVKKVRLPSRCEPPGTTCTVSGWGTTTSPDVTFPSDLMCVDVKLISPQDCTKVYKDLLENSMLCAGIPDSKKNACNGDSGGPLVCRGTLQGLVSWGTFPCGQPNDPGVYTQVCKFTKWINDTMKKHR
Desmocollin 1, Q08554
  proteolysis (immunoblot of human epidermis extract incubated with active SCCE): Desmocollin is found to be proteolysed by SCCE.
Plakoglobin, P14923
  proteolysis (immunoblot of human epidermis extract incubated with active SCCE): Plakoglobin is found to be proteolysed by recombinant SCCE.
Corneodesmosin, Q15517
  proteolysis (immunoblot of human epidermis extract incubated with active SCCE): Corneodesmosin is found to be proteolysed by recombinant SCCE.
Desmoplakin, P15924
Sequence of Desmoplakin, P15924 (P15924 whole entry): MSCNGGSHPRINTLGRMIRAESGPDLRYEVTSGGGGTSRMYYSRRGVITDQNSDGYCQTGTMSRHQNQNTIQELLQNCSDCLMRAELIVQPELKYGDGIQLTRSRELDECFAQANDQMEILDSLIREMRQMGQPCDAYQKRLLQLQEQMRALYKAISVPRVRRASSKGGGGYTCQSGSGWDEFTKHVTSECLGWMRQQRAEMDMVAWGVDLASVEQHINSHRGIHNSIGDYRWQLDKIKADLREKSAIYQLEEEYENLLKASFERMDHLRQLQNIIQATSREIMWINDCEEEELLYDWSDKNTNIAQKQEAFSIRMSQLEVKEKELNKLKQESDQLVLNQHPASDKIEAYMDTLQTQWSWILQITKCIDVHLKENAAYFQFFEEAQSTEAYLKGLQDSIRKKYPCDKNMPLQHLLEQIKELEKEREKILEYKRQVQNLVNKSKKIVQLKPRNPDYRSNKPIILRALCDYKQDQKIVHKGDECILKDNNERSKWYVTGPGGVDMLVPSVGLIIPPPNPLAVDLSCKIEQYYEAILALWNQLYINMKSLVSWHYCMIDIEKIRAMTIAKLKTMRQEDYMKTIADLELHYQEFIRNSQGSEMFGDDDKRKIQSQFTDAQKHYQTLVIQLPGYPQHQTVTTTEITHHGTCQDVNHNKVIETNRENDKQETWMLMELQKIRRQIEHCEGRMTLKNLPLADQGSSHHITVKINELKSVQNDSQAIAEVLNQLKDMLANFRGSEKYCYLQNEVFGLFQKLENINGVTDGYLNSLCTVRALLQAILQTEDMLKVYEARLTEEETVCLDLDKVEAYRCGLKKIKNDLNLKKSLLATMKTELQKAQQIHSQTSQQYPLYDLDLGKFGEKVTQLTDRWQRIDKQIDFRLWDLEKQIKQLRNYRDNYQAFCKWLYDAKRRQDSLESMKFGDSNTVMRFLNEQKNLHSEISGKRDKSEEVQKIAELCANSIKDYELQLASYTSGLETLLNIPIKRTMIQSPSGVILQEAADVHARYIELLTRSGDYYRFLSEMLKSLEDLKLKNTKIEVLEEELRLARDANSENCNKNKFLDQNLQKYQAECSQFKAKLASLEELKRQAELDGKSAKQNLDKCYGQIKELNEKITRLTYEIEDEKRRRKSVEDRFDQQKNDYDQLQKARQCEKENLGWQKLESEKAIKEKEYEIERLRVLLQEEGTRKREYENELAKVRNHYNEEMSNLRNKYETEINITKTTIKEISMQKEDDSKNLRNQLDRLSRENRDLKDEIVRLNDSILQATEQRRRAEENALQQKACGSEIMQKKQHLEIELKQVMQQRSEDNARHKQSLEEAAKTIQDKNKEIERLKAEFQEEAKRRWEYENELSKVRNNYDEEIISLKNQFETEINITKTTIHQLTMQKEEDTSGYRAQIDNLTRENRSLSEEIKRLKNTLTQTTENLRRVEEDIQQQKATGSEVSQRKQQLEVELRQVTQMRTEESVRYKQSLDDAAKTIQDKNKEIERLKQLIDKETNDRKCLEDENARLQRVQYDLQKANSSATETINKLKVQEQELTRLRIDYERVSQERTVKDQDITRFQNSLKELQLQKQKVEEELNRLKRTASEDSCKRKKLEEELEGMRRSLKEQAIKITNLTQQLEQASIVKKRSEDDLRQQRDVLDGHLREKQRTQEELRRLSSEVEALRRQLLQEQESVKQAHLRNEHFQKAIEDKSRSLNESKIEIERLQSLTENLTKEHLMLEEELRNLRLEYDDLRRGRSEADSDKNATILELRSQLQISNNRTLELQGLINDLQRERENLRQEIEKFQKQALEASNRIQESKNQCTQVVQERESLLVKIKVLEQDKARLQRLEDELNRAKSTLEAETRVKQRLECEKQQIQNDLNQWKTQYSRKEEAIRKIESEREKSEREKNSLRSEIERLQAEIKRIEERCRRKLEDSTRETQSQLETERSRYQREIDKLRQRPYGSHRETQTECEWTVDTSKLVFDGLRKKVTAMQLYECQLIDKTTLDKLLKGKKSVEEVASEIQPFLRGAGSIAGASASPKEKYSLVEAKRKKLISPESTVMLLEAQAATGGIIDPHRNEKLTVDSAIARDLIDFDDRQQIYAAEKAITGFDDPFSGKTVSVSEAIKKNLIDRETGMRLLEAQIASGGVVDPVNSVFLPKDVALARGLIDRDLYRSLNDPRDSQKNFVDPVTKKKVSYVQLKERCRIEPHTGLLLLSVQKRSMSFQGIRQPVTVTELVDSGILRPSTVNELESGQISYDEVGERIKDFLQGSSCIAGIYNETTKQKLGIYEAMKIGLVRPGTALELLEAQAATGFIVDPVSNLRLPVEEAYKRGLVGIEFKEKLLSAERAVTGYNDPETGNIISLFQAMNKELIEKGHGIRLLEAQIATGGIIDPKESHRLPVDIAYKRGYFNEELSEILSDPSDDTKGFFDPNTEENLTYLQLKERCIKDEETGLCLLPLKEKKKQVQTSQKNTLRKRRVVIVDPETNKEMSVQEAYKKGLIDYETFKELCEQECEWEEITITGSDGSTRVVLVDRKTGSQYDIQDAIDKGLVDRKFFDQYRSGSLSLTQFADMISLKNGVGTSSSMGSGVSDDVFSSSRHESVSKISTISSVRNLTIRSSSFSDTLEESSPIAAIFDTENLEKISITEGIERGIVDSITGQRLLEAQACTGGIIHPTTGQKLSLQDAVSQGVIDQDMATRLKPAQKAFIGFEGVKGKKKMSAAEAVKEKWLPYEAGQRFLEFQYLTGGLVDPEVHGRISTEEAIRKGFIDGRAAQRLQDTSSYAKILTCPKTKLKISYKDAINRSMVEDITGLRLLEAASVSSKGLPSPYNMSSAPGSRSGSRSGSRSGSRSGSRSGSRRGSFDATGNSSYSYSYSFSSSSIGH
  proteolysis (immunoblot of human epidermis extract incubated with active SCCE): Desmoplakin is found to be proteolysed by SCCE.
Envoplakin, Q92817
Sequence of Envoplakin, Q92817 (Q92817 whole entry): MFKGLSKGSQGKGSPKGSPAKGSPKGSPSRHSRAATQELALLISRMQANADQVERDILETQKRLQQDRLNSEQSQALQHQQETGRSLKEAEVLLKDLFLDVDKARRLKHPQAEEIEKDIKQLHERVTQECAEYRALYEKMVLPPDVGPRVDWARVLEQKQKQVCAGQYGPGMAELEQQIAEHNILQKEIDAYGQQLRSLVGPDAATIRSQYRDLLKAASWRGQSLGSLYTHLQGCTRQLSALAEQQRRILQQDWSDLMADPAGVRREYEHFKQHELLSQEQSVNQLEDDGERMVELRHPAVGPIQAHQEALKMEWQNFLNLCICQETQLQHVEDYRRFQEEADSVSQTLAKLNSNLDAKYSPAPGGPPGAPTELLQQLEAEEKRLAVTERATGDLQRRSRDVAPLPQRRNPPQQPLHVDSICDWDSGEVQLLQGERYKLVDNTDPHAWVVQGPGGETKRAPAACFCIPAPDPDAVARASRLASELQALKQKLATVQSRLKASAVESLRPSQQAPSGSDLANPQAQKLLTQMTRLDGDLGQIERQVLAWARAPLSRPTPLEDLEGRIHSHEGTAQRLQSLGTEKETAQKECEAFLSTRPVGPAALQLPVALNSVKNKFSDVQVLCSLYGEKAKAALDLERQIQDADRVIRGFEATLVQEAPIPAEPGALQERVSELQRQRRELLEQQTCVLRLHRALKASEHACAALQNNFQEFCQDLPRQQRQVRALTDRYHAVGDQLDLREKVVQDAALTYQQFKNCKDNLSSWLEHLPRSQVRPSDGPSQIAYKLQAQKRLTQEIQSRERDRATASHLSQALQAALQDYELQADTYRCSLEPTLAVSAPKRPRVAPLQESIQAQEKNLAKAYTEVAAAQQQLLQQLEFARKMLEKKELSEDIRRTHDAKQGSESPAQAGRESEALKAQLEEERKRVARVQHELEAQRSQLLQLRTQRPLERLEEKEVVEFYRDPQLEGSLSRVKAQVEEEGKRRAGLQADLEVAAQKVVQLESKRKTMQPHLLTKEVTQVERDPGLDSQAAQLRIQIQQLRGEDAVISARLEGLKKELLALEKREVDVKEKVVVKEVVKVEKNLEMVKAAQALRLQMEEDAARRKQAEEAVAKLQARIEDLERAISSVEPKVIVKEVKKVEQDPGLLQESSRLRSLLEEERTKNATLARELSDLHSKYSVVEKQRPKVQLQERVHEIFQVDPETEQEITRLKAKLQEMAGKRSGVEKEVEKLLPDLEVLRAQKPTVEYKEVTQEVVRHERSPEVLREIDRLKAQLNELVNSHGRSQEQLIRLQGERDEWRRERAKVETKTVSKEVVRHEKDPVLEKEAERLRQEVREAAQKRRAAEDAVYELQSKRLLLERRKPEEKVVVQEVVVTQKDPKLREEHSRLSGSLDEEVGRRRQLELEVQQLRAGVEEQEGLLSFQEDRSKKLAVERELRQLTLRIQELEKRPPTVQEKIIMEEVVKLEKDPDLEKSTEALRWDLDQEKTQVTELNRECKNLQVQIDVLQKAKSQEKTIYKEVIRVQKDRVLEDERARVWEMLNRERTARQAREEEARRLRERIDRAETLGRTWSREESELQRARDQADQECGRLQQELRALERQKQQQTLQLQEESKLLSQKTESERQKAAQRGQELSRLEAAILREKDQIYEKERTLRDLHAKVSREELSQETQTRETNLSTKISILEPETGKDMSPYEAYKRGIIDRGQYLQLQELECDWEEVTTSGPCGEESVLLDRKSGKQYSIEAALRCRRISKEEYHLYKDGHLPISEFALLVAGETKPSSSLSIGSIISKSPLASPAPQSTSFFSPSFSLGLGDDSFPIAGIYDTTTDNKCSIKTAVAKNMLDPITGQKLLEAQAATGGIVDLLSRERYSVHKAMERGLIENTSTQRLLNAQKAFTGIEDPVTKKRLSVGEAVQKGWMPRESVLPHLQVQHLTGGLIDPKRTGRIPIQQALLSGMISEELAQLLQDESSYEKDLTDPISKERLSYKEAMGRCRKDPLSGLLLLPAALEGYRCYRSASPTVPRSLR
  proteolysis (immunoblot of human epidermis extract incubated with active SCCE): Envoplakin is found to be proteolysed by SCCE.
Desmoglein, Q02413
  proteolysis (immunoblot of human epidermis extract incubated with active SCCE): Desmoglein is found to be proteolysed by SCCE.
